From the supplement of paper PMC10065799, “High-throughput profiling of sequence recognition by tyrosine kinases and SH2 domains using bacterial peptide display” (eLife, 2023)
One block for each sequence: values may come before it.

Tests used:
Fes = Fes (UniProt P07332); experiment: phosphorylation enrichment, bacterial display (enrichment ratio); higher = better substrate or ligand; peptides without Tyr show the background
Fyn = Fyn (UniProt P06241); experiment: as above
Hck = Hck (UniProt P08631); experiment: as above
Hck, sequence (P08631 whole entry, looked up): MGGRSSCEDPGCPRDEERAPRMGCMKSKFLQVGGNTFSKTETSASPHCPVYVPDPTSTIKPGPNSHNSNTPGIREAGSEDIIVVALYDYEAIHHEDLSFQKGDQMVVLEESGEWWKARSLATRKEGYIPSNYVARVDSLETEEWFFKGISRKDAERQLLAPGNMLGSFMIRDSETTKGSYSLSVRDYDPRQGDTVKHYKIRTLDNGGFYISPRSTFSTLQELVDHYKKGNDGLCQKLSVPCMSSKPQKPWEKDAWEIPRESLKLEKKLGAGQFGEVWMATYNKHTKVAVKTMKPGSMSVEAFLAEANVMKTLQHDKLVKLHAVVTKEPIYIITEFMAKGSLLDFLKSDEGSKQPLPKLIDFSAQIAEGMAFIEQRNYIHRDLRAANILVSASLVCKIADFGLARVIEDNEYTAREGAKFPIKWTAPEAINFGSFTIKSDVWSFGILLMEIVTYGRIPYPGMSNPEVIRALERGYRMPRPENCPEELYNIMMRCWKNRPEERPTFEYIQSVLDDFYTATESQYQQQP

EPHB2 = EPHB2 (UniProt P29323); experiment: as above
EPHB2, sequence (P29323 whole entry, looked up): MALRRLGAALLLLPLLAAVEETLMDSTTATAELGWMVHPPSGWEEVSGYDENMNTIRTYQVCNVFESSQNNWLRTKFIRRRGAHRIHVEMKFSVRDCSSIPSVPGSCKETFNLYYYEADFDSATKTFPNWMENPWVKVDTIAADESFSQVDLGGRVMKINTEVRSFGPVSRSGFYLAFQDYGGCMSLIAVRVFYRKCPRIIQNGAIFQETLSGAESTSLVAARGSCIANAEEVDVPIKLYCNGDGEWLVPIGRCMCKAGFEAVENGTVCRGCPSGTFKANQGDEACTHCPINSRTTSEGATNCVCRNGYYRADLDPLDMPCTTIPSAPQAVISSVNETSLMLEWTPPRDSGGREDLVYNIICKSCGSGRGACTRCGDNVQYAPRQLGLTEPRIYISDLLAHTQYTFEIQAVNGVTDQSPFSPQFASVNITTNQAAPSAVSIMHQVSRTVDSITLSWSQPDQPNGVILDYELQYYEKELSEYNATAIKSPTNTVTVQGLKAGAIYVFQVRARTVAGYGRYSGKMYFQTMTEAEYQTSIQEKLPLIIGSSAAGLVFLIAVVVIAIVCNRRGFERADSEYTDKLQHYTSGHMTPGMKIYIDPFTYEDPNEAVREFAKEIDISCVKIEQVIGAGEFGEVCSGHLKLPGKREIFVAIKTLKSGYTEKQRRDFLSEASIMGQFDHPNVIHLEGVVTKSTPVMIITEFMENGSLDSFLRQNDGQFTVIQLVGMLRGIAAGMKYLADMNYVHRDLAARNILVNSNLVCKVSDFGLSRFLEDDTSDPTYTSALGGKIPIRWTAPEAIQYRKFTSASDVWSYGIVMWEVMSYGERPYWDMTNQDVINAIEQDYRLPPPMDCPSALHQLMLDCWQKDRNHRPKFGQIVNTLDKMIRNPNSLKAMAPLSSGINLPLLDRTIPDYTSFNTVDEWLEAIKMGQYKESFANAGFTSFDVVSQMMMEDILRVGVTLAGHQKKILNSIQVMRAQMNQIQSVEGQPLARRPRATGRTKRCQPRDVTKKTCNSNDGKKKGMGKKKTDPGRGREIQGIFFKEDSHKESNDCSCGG

AncSZ = experiment: as above
FGFR1 = FGFR1 (UniProt P11362); experiment: as above
FGFR1, sequence (P11362 whole entry, looked up): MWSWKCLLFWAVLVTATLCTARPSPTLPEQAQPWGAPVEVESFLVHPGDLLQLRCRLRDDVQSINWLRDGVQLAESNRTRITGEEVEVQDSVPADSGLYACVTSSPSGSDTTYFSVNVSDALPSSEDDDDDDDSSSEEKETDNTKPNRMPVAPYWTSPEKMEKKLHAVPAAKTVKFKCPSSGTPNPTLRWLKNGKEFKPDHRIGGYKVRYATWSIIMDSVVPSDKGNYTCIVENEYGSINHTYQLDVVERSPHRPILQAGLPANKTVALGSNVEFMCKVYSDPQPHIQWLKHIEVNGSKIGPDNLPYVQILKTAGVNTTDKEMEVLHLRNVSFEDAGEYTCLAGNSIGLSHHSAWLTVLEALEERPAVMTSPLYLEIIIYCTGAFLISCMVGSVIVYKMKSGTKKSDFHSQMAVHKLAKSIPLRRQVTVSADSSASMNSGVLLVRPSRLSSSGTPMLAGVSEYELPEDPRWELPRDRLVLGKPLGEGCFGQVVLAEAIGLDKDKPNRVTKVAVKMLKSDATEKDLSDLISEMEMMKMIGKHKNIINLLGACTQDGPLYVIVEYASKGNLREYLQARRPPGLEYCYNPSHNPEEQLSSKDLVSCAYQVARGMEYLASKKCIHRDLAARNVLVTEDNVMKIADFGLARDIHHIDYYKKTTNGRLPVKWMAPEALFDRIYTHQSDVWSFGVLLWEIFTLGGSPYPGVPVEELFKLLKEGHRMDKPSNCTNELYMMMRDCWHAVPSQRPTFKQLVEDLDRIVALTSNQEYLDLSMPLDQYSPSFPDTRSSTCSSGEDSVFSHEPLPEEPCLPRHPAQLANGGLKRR

MERTK = MERTK (UniProt Q12866); experiment: as above
EPHB1 = EPHB1 (UniProt P54762); experiment: as above
Jak2 = Jak2 (UniProt O60674); experiment: as above
Jak2, sequence (O60674 whole entry, looked up): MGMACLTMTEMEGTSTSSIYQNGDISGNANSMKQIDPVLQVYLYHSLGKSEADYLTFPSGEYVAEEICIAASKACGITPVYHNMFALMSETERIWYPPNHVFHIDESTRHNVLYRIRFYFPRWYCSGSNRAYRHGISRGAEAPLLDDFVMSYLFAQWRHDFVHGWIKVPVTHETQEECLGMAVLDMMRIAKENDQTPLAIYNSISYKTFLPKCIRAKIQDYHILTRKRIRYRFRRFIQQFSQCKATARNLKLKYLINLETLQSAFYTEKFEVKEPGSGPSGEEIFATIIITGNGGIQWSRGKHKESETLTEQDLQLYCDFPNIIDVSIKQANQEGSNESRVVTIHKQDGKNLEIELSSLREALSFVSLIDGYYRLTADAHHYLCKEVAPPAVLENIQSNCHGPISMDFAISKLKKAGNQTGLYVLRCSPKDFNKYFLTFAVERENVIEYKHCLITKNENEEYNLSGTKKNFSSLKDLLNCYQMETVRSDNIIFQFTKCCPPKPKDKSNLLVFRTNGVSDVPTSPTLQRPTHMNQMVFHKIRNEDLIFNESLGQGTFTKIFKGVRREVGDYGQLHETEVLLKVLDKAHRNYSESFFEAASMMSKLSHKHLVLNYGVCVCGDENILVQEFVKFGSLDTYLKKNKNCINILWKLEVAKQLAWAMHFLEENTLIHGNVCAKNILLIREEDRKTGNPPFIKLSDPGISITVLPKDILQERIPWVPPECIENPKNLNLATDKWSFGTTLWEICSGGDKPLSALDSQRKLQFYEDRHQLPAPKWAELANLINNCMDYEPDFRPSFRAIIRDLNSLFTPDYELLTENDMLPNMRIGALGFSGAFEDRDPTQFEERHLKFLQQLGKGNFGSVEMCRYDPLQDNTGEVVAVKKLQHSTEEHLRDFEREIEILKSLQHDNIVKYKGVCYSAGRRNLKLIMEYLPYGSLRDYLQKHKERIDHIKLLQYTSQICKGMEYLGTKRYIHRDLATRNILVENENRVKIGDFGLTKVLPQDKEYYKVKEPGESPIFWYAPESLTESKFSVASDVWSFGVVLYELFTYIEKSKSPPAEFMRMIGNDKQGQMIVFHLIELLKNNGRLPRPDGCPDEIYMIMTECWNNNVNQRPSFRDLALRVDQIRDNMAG

c-Abl (mouse) = experiment: as above
FGFR3 = FGFR3 (UniProt P22607); experiment: as above
FGFR3, sequence (P22607 whole entry, looked up): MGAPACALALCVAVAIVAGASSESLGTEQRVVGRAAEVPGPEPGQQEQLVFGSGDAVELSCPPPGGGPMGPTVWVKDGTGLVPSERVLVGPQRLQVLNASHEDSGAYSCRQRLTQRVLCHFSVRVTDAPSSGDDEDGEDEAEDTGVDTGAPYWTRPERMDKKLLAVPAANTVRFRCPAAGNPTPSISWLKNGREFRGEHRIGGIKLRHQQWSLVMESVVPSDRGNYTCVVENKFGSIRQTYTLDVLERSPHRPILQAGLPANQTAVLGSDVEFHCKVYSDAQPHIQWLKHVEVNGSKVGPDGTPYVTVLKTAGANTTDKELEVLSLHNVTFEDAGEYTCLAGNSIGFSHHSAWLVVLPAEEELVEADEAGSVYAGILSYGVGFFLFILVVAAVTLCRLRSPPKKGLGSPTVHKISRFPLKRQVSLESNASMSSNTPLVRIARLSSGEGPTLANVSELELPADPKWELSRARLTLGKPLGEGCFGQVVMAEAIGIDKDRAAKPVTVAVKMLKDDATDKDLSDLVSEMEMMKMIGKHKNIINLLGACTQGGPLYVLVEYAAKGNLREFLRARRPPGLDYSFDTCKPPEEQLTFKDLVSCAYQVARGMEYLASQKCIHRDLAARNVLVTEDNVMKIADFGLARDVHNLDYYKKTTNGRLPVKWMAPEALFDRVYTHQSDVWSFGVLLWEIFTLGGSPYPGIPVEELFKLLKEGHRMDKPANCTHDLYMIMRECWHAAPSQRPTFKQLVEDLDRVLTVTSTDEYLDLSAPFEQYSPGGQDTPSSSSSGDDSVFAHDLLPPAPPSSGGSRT

c-Src = experiment: as above
Fer (mouse) = experiment: as above
Grb2 SH2 = Grb2 SH2 (UniProt P62993); experiment: SH2 binding enrichment of the phosphorylated peptide, bacterial display (enrichment ratio); higher = better substrate or ligand; peptides without Tyr show the background
c-Src SH2 = experiment: as above
SHP2-C SH2 = experiment: as above
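Throughout, for SH2 binding enrichment of the phosphorylated peptide, bacterial display: peptide library displayed on the E. coli surface as eCPX fusions, selected cells deep-sequenced, score is each peptide's frequency after selection divided by its frequency in the input.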
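Throughout, for phosphorylation enrichment, bacterial display: 11-residue human phosphosite peptides and single-mutation variants displayed on the E. coli surface, counted by deep sequencing, each peptide's frequency after selection divided by its frequency in the unselected input library; frequency after pTyr selection over input frequency; kinase dosed for 20-30% of maximal phosphorylation in three min.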

Fyn, sequence (P06241 whole entry, looked up): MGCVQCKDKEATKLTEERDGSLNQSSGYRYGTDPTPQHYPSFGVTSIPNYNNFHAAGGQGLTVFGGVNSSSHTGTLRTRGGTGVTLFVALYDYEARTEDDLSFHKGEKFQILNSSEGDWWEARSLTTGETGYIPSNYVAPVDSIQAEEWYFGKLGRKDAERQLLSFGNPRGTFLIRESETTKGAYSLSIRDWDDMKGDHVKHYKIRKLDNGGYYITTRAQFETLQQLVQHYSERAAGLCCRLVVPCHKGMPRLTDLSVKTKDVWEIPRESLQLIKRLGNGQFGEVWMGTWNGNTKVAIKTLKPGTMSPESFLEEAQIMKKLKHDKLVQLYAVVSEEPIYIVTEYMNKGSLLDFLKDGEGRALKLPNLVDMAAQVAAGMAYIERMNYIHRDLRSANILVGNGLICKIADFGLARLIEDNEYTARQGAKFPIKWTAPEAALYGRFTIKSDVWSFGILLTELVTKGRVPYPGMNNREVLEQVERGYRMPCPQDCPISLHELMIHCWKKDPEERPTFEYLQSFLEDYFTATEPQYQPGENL

SH2 binding enrichment (Grb2 SH2): 0.83
SH2 binding enrichment (c-Src SH2): 0.454
SH2 binding enrichment (SHP2-C SH2): 0.716
Sequence: DEIPLYLKGGV [COX7A2_Y44]
phosphorylation enrichment (Fes): 0.962
phosphorylation enrichment (Fyn): 0.492
phosphorylation enrichment (Hck): 0.522
phosphorylation enrichment (EPHB2): 0.508
phosphorylation enrichment (AncSZ): 0.79
phosphorylation enrichment (FGFR1): 0.5
phosphorylation enrichment (MERTK): 0.391
phosphorylation enrichment (EPHB1): 0.566
phosphorylation enrichment (Jak2): 0.854
phosphorylation enrichment (c-Abl (mouse)): 0.593
phosphorylation enrichment (FGFR3): 0.656
phosphorylation enrichment (c-Src): 0.422
phosphorylation enrichment (Fer (mouse)): 0.485

SH2 binding enrichment (Grb2 SH2): 0.801
SH2 binding enrichment (c-Src SH2): 0.462
SH2 binding enrichment (SHP2-C SH2): 0.339
Sequence: FPRAWYRRSIA [KIAA1109_Y4272]
phosphorylation enrichment (Fes): 0.55
phosphorylation enrichment (Fyn): 0.405
phosphorylation enrichment (Hck): 0.413
phosphorylation enrichment (EPHB2): 0.468
phosphorylation enrichment (AncSZ): 0.693
phosphorylation enrichment (FGFR1): 0.394
phosphorylation enrichment (MERTK): 0.473
phosphorylation enrichment (EPHB1): 0.394
phosphorylation enrichment (Jak2): 0.689
phosphorylation enrichment (c-Abl (mouse)): 0.552
phosphorylation enrichment (FGFR3): 0.381
phosphorylation enrichment (c-Src): 0.477
phosphorylation enrichment (Fer (mouse)): 0.473

SH2 binding enrichment (Grb2 SH2): 1.14
SH2 binding enrichment (c-Src SH2): 0.772
SH2 binding enrichment (SHP2-C SH2): 0.827
Sequence: CSHMFYGKQCC [ADAMTS16_Y1211_K1209M]
phosphorylation enrichment (Fes): 1.01
phosphorylation enrichment (Fyn): 0.653
phosphorylation enrichment (Hck): 0.519
phosphorylation enrichment (EPHB2): 0.543
phosphorylation enrichment (AncSZ): 0.839
phosphorylation enrichment (FGFR1): 0.464
phosphorylation enrichment (MERTK): 0.485
phosphorylation enrichment (EPHB1): 0.587
phosphorylation enrichment (Jak2): 0.852
phosphorylation enrichment (c-Abl (mouse)): 0.713
phosphorylation enrichment (FGFR3): 0.606
phosphorylation enrichment (c-Src): 0.573
phosphorylation enrichment (Fer (mouse)): 0.539

SH2 binding enrichment (Grb2 SH2): 0.853
SH2 binding enrichment (c-Src SH2): 0.493
SH2 binding enrichment (SHP2-C SH2): 0.727
Sequence: RVLQLYGCSPS [ASTL_Y279_K277Q]
phosphorylation enrichment (Fes): 1.72
phosphorylation enrichment (Fyn): 1.54
phosphorylation enrichment (Hck): 2.33
phosphorylation enrichment (EPHB2): 1.71
phosphorylation enrichment (AncSZ): 1.69
phosphorylation enrichment (FGFR1): 1.06
phosphorylation enrichment (MERTK): 0.576
phosphorylation enrichment (EPHB1): 1.3
phosphorylation enrichment (Jak2): 1.48
phosphorylation enrichment (c-Abl (mouse)): 1.38
phosphorylation enrichment (FGFR3): 1.26
phosphorylation enrichment (c-Src): 1.38
phosphorylation enrichment (Fer (mouse)): 1.15

SH2 binding enrichment (Grb2 SH2): 0.553
SH2 binding enrichment (c-Src SH2): 0.467
SH2 binding enrichment (SHP2-C SH2): 0.747
Sequence: HEEDNYIEMIP [NWD2_Y566_L569M]
phosphorylation enrichment (Fes): 2.85
phosphorylation enrichment (Fyn): 0.67
phosphorylation enrichment (Hck): 0.822
phosphorylation enrichment (EPHB2): 1.19
phosphorylation enrichment (AncSZ): 3.02
phosphorylation enrichment (FGFR1): 3.93
phosphorylation enrichment (MERTK): 1.13
phosphorylation enrichment (EPHB1): 1.68
phosphorylation enrichment (Jak2): 2.39
phosphorylation enrichment (c-Abl (mouse)): 1.86
phosphorylation enrichment (FGFR3): 3.82
phosphorylation enrichment (c-Src): 1.16
phosphorylation enrichment (Fer (mouse)): 0.938

SH2 binding enrichment (Grb2 SH2): 0.901
SH2 binding enrichment (c-Src SH2): 0.479
SH2 binding enrichment (SHP2-C SH2): 0.795
Sequence: DISEPYKVYRI [IRF8_Y107]
phosphorylation enrichment (Fes): 0.88
phosphorylation enrichment (Fyn): 0.445
phosphorylation enrichment (Hck): 1.34
phosphorylation enrichment (EPHB2): 0.517
phosphorylation enrichment (AncSZ): 0.911
phosphorylation enrichment (FGFR1): 0.481
phosphorylation enrichment (MERTK): 0.487
phosphorylation enrichment (EPHB1): 0.537
phosphorylation enrichment (Jak2): 0.78
phosphorylation enrichment (c-Abl (mouse)): 0.62
phosphorylation enrichment (FGFR3): 0.549
phosphorylation enrichment (c-Src): 0.622
phosphorylation enrichment (Fer (mouse)): 0.497

SH2 binding enrichment (Grb2 SH2): 1.06
SH2 binding enrichment (c-Src SH2): 0.787
SH2 binding enrichment (SHP2-C SH2): 1.03
Sequence: NWGKKYPTCNS [PTPRZ1_Y53]
phosphorylation enrichment (Fes): 0.978
phosphorylation enrichment (Fyn): 0.523
phosphorylation enrichment (Hck): 0.463
phosphorylation enrichment (EPHB2): 0.558
phosphorylation enrichment (AncSZ): 0.771
phosphorylation enrichment (FGFR1): 0.459
phosphorylation enrichment (MERTK): 0.43
phosphorylation enrichment (EPHB1): 0.507
phosphorylation enrichment (Jak2): 0.85
phosphorylation enrichment (c-Abl (mouse)): 0.839
phosphorylation enrichment (FGFR3): 0.603
phosphorylation enrichment (c-Src): 0.435
phosphorylation enrichment (Fer (mouse)): 0.485

SH2 binding enrichment (Grb2 SH2): 0.913
SH2 binding enrichment (c-Src SH2): 1.28
SH2 binding enrichment (SHP2-C SH2): 0.489
Sequence: SREALYNEMDP [CACNA1A_Y794]
phosphorylation enrichment (Fes): 1.24
phosphorylation enrichment (Fyn): 0.685
phosphorylation enrichment (Hck): 0.834
phosphorylation enrichment (EPHB2): 0.693
phosphorylation enrichment (AncSZ): 1.41
phosphorylation enrichment (FGFR1): 0.692
phosphorylation enrichment (MERTK): 2.36
phosphorylation enrichment (EPHB1): 0.735
phosphorylation enrichment (Jak2): 1.14
phosphorylation enrichment (c-Abl (mouse)): 0.852
phosphorylation enrichment (FGFR3): 0.896
phosphorylation enrichment (c-Src): 0.869
phosphorylation enrichment (Fer (mouse)): 0.731

SH2 binding enrichment (Grb2 SH2): 0.92
SH2 binding enrichment (c-Src SH2): 0.533
SH2 binding enrichment (SHP2-C SH2): 0.534
Sequence: ILLAGCLVMVI [SLC28A3_Y113_Y113C]
phosphorylation enrichment (Fes): 1.26
phosphorylation enrichment (Fyn): 0.471
phosphorylation enrichment (Hck): 0.51
phosphorylation enrichment (EPHB2): 0.614
phosphorylation enrichment (AncSZ): 1.24
phosphorylation enrichment (FGFR1): 0.422
phosphorylation enrichment (MERTK): 0.486
phosphorylation enrichment (EPHB1): 0.607
phosphorylation enrichment (Jak2): 1.18
phosphorylation enrichment (c-Abl (mouse)): 0.995
phosphorylation enrichment (FGFR3): 0.829
phosphorylation enrichment (c-Src): 0.475
phosphorylation enrichment (Fer (mouse)): 0.493

SH2 binding enrichment (Grb2 SH2): 0.75
SH2 binding enrichment (c-Src SH2): 0.597
SH2 binding enrichment (SHP2-C SH2): 0.643
Sequence: LPKEQYLYTKE [AFG3L2_Y614]
phosphorylation enrichment (Fes): 1.42
phosphorylation enrichment (Fyn): 0.634
phosphorylation enrichment (Hck): 0.767
phosphorylation enrichment (EPHB2): 0.574
phosphorylation enrichment (AncSZ): 1.3
phosphorylation enrichment (FGFR1): 0.789
phosphorylation enrichment (MERTK): 0.792
phosphorylation enrichment (EPHB1): 0.895
phosphorylation enrichment (Jak2): 1.41
phosphorylation enrichment (c-Abl (mouse)): 1.48
phosphorylation enrichment (FGFR3): 0.998
phosphorylation enrichment (c-Src): 0.913
phosphorylation enrichment (Fer (mouse)): 0.75

SH2 binding enrichment (Grb2 SH2): 0.775
SH2 binding enrichment (c-Src SH2): 0.392
SH2 binding enrichment (SHP2-C SH2): 0.564
Sequence: LFDPDYMKVIL [CYP4A22_Y104_YF]
phosphorylation enrichment (Fes): 4.91
phosphorylation enrichment (Fyn): 0.675
phosphorylation enrichment (Hck): 0.759
phosphorylation enrichment (EPHB2): 1.43
phosphorylation enrichment (AncSZ): 1.76
phosphorylation enrichment (FGFR1): 1.5
phosphorylation enrichment (MERTK): 0.502
phosphorylation enrichment (EPHB1): 1.42
phosphorylation enrichment (Jak2): 1.23
phosphorylation enrichment (c-Abl (mouse)): 0.958
phosphorylation enrichment (FGFR3): 1.44
phosphorylation enrichment (c-Src): 0.675
phosphorylation enrichment (Fer (mouse)): 1.2

SH2 binding enrichment (Grb2 SH2): 0.976
SH2 binding enrichment (c-Src SH2): 0.55
SH2 binding enrichment (SHP2-C SH2): 0.674
Sequence: EKQLLYSENKT [FRK_Y132]
phosphorylation enrichment (Fes): 0.919
phosphorylation enrichment (Fyn): 0.465
phosphorylation enrichment (Hck): 0.85
phosphorylation enrichment (EPHB2): 0.652
phosphorylation enrichment (AncSZ): 0.732
phosphorylation enrichment (FGFR1): 0.456
phosphorylation enrichment (MERTK): 0.766
phosphorylation enrichment (EPHB1): 0.528
phosphorylation enrichment (Jak2): 0.638
phosphorylation enrichment (c-Abl (mouse)): 0.563
phosphorylation enrichment (FGFR3): 0.599
phosphorylation enrichment (c-Src): 0.616
phosphorylation enrichment (Fer (mouse)): 1.19

SH2 binding enrichment (Grb2 SH2): 0.961
SH2 binding enrichment (c-Src SH2): 0.787
SH2 binding enrichment (SHP2-C SH2): 0.811
Sequence: REESTYLPLTS [ICAM3_Y527]
phosphorylation enrichment (Fes): 1.75
phosphorylation enrichment (Fyn): 1.35
phosphorylation enrichment (Hck): 3.17
phosphorylation enrichment (EPHB2): 0.894
phosphorylation enrichment (AncSZ): 1.62
phosphorylation enrichment (FGFR1): 1.19
phosphorylation enrichment (MERTK): 0.803
phosphorylation enrichment (EPHB1): 0.88
phosphorylation enrichment (Jak2): 1.41
phosphorylation enrichment (c-Abl (mouse)): 0.674
phosphorylation enrichment (FGFR3): 1.51
phosphorylation enrichment (c-Src): 2.39
phosphorylation enrichment (Fer (mouse)): 1

SH2 binding enrichment (Grb2 SH2): 0.668
SH2 binding enrichment (c-Src SH2): 0.51
SH2 binding enrichment (SHP2-C SH2): 0.471
Sequence: FDDIACIRKTL [PIK3CA_Y1021_Y1021C]
phosphorylation enrichment (Fes): 1.03
phosphorylation enrichment (Fyn): 0.374
phosphorylation enrichment (Hck): 0.448
phosphorylation enrichment (EPHB2): 0.629
phosphorylation enrichment (AncSZ): 0.911
phosphorylation enrichment (FGFR1): 0.497
phosphorylation enrichment (MERTK): 0.386
phosphorylation enrichment (EPHB1): 0.603
phosphorylation enrichment (Jak2): 0.787
phosphorylation enrichment (c-Abl (mouse)): 0.661
phosphorylation enrichment (FGFR3): 0.756
phosphorylation enrichment (c-Src): 0.378
phosphorylation enrichment (Fer (mouse)): 0.424

SH2 binding enrichment (Grb2 SH2): 1.52
SH2 binding enrichment (c-Src SH2): 0.763
SH2 binding enrichment (SHP2-C SH2): 1.17
Sequence: LIHLHYIRRDY [BBS4_Y43_K46R]
phosphorylation enrichment (Fes): 0.773
phosphorylation enrichment (Fyn): 0.389
phosphorylation enrichment (Hck): 0.47
phosphorylation enrichment (EPHB2): 0.526
phosphorylation enrichment (AncSZ): 0.952
phosphorylation enrichment (FGFR1): 0.417
phosphorylation enrichment (MERTK): 0.524
phosphorylation enrichment (EPHB1): 0.334
phosphorylation enrichment (Jak2): 0.562
phosphorylation enrichment (c-Abl (mouse)): 0.524
phosphorylation enrichment (FGFR3): 0.759
phosphorylation enrichment (c-Src): 0.388
phosphorylation enrichment (Fer (mouse)): 0.41

SH2 binding enrichment (Grb2 SH2): 0.788
SH2 binding enrichment (c-Src SH2): 0.625
SH2 binding enrichment (SHP2-C SH2): 0.676
Sequence: IFHENYNAGTY [CFI_Y421]
phosphorylation enrichment (Fes): 1.02
phosphorylation enrichment (Fyn): 0.664
phosphorylation enrichment (Hck): 0.717
phosphorylation enrichment (EPHB2): 0.585
phosphorylation enrichment (AncSZ): 0.804
phosphorylation enrichment (FGFR1): 0.557
phosphorylation enrichment (MERTK): 0.533
phosphorylation enrichment (EPHB1): 0.656
phosphorylation enrichment (Jak2): 0.783
phosphorylation enrichment (c-Abl (mouse)): 0.603
phosphorylation enrichment (FGFR3): 0.588
phosphorylation enrichment (c-Src): 0.655
phosphorylation enrichment (Fer (mouse)): 1.01
